Data from article PMC5898196 (Science (New York, N.Y.), 2017).

Biological target: the molecule itself
Test: cryo-EM structure

B1: Recombinant full-length human TRPM4 (hTRPM4b) (natural protein)
chain: not shown
modifications: glycan at Asn992
B1 was tested, and the “stoichiometry N” value was 4.
